Measurements taken from the supplement of paper PMC10567573.

B1: KCNG1 (parent)
chain: AVNLSVSTLPSLREEEEQVRAHAP
B2: KCTD10 (parent)
chain: SSKEEQKLIATSNKPAVKLLYNRS

Variants of: B1
Experiment: protein stability index of a GFP-peptide fusion (GPS, HEK-293T) (PSI 1-6); higher = more stable
Settings: c terminus: a fixed tail appended
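Also: lentivirally expressed fusions sorted by FACS into six bins by GFP to DsRed ratio, PSI derived from sequencing read proportions per bin multiplied by bin number.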

Going from AVNLSVSTLPSLREEEEQTRAHAP [V19T] to AVNLSVSTLPSLREEEEQWRAHAP [V19W], the protein stability index falls from 4.9 to 4.46.

First: AVNLSVSTLPSLREEEEQARAHAP [V19A]
Second: AVNLSVSTLPSLREEEEQHRAHAP [V19H]
The protein stability index of the first is lower: 4.98 for the first, 5.08 for the second.

First: AVNLSVSTLPSLREEEEQIRAHAP [V19I]
Second: AVNLSVSTLPSLREEEEQPRAHAP [V19P]
The protein stability index of the first is lower: 5.15 for the first, 5.36 for the second.

First: AVNLSVSTLPSLREEEIQVRAHAP [E17I]
Second: AVNLSVSTLPSLREEEPQVRAHAP [E17P]
The protein stability index of the first is lower: 4.23 for the first, 4.71 for the second.

First: AVNLSVSTLPSLREEESQVRAHAP [E17S]
Second: AVNLSVSTLPSLREEEMQVRAHAP [E17M]
The protein stability index of the first is higher: 4.61 for the first, 4.46 for the second.

Going from AVNLSVSTLPSLREEELQVRAHAP [E17L] to AVNLSVSTLPSLREEEYQVRAHAP [E17Y], the protein stability index falls from 4.11 to 3.6.

Going from AVNLSVSTLPSLREEENQVRAHAP [E17N] to AVNLSVSTLPSLREEEGQVRAHAP [E17G], the protein stability index falls from 4.73 to 4.64.

First: AVNLSVSTLPSLREEEAQVRAHAP [E17A]
Second: AVNLSVSTLPSLREEEKQVRAHAP [E17K]
The protein stability index of the first is higher: 4.67 for the first, 4.43 for the second.

Compared with AVNLSVSTLPSLREEEVQVRAHAP [E17V], AVNLSVSTLPSLREEEQQVRAHAP [E17Q] is higher in protein stability index: 4.38 for the first, 4.69 for the second.

First: AVNLSVSTLPSLREEEWQVRAHAP [E17W]
Second: AVNLSVSTLPSLREEEFQVRAHAP [E17F]
The protein stability index of the first is lower: 3.08 for the first, 3.23 for the second.

Going from AVNLSVSTLPSLREEERQVRAHAP [E17R] to AVNLSVSTLPSLREEETQVRAHAP [E17T], the protein stability index falls from 4.61 to 4.32.

Compared with AVNLSVSTLPSLREEECQVRAHAP [E17C], AVNLSVSTLPSLREEEHQVRAHAP [E17H] is higher in protein stability index: 4.2 for the first, 4.43 for the second.

Compared with AVNLSVSTLPSLREEEDQVRAHAP [E17D], AVNLSVSTLPSLREEEEMVRAHAP [Q18M] is higher in protein stability index: 4.73 for the first, 4.77 for the second.

Going from AVNLSVSTLPSLREEEELVRAHAP [Q18L] to AVNLSVSTLPSLREEEEHVRAHAP [Q18H], the protein stability index falls from 5 to 4.67.

Going from AVNLSVSTLPSLREEEEKVRAHAP [Q18K] to AVNLSVSTLPSLREEEEIVRAHAP [Q18I], the protein stability index rises from 4.75 to 4.82.

First: AVNLSVSTLPSLREEEESVRAHAP [Q18S]
Second: AVNLSVSTLPSLREEEEVVRAHAP [Q18V]
The protein stability index of the first is higher: 5.26 for the first, 4.55 for the second.

Going from AVNLSVSTLPSLREEEEGVRAHAP [Q18G] to AVNLSVSTLPSLREEEERVRAHAP [Q18R], the protein stability index falls from 5.17 to 4.55.

Compared with AVNLSVSTLPSLREEEEWVRAHAP [Q18W], AVNLSVSTLPSLREEEEPVRAHAP [Q18P] is higher in protein stability index: 4.05 for the first, 5.04 for the second.

Going from AVNLSVSTLPSLREEEEAVRAHAP [Q18A] to AVNLSVSTLPSLREEEEDVRAHAP [Q18D], the protein stability index rises from 4.75 to 5.2.

Compared with AVNLSVSTLPSLREEEEYVRAHAP [Q18Y], AVNLSVSTLPSLREEEECVRAHAP [Q18C] is higher in protein stability index: 4.42 for the first, 4.98 for the second.

Going from AVNLSVSTLPSLREEEETVRAHAP [Q18T] to AVNLSVSTLPSLREEEEFVRAHAP [Q18F], the protein stability index falls from 4.99 to 4.17.

Compared with AVNLSVSTLPSLREEEENVRAHAP [Q18N], AVNLSVSTLPSLREEEEEVRAHAP [Q18E] is higher in protein stability index: 4.95 for the first, 5.57 for the second.

Compared with AVNLSVSTLPSLREEEEQVRCHAP [A21C], AVNLSVSTLPSLREEEEQVRSHAP [A21S] is higher in protein stability index: 4.74 for the first, 4.96 for the second.

Compared with AVNLSVSTLPSLREEEEQVRTHAP [A21T], AVNLSVSTLPSLREEEEQVRQHAP [A21Q] is higher in protein stability index: 4.54 for the first, 5.25 for the second.

Going from AVNLSVSTLPSLREEEEQVRLHAP [A21L] to AVNLSVSTLPSLREEEEQVRFHAP [A21F], the protein stability index falls from 4.71 to 3.75.

First: AVNLSVSTLPSLREEEEQVRDHAP [A21D]
Second: AVNLSVSTLPSLREEEEQVREHAP [A21E]
The protein stability index of the first is higher: 5.32 for the first, 4.52 for the second.

Compared with AVNLSVSTLPSLREEEEQVRNHAP [A21N], AVNLSVSTLPSLREEEEQVRYHAP [A21Y] is lower in protein stability index: 4.28 for the first, 3.93 for the second.

Going from AVNLSVSTLPSLREEEEQVRVHAP [A21V] to AVNLSVSTLPSLREEEEQVRWHAP [A21W], the protein stability index falls from 4.36 to 3.35.

First: AVNLSVSTLPSLREEEEQVRIHAP [A21I]
Second: AVNLSVSTLPSLREEEEQVRRHAP [A21R]
The protein stability index of the first is lower: 4.11 for the first, 4.99 for the second.

Going from AVNLSVSTLPSLREEEEQVRPHAP [A21P] to AVNLSVSTLPSLREEEEQVRMHAP [A21M], the protein stability index falls from 4.97 to 4.27.

First: AVNLSVSTLPSLREEEEQVRHHAP [A21H]
Second: AVNLSVSTLPSLREEEEQVRKHAP [A21K]
The protein stability index of the first is higher: 4.68 for the first, 4.64 for the second.

Variant AVNLSVSTLPSLREEEEQVRGHAP [A21G] has a protein stability index of 5.13.

Variants of: B2
Experiment: as above
Settings: c terminus: a fixed tail appended

First: SNKEEQKLIATSNKPAVKLLYNRS [S2N]
Second: SEKEEQKLIATSNKPAVKLLYNRS [S2E]
The protein stability index of the first is lower: 4.16 for the first, 4.43 for the second.

First: SLKEEQKLIATSNKPAVKLLYNRS [S2L]
Second: SIKEEQKLIATSNKPAVKLLYNRS [S2I]
The protein stability index of the first is lower: 3.79 for the first, 3.88 for the second.

First: SKKEEQKLIATSNKPAVKLLYNRS [S2K]
Second: SFKEEQKLIATSNKPAVKLLYNRS [S2F]
The protein stability index of the first is higher: 3.97 for the first, 3.57 for the second.

First: SHKEEQKLIATSNKPAVKLLYNRS [S2H]
Second: SDKEEQKLIATSNKPAVKLLYNRS [S2D]
The protein stability index of the first is lower: 3.99 for the first, 4.55 for the second.

Going from SAKEEQKLIATSNKPAVKLLYNRS [S2A] to SGKEEQKLIATSNKPAVKLLYNRS [S2G], the protein stability index falls from 4.54 to 4.25.

Compared with SCKEEQKLIATSNKPAVKLLYNRS [S2C], SMKEEQKLIATSNKPAVKLLYNRS [S2M] is higher in protein stability index: 2.83 for the first, 4.13 for the second.

First: NSKEEQKLIATSNKPAVKLLYNRS [S1N]
Second: YSKEEQKLIATSNKPAVKLLYNRS [S1Y]
The protein stability index of the first is higher: 4.32 for the first, 3.18 for the second.

First: PSKEEQKLIATSNKPAVKLLYNRS [S1P]
Second: TSKEEQKLIATSNKPAVKLLYNRS [S1T]
The protein stability index of the first is lower: 3.98 for the first, 4.1 for the second.

First: MSKEEQKLIATSNKPAVKLLYNRS [S1M]
Second: ISKEEQKLIATSNKPAVKLLYNRS [S1I]
The protein stability index of the first is higher: 4.26 for the first, 3.56 for the second.

Compared with LSKEEQKLIATSNKPAVKLLYNRS [S1L], ASKEEQKLIATSNKPAVKLLYNRS [S1A] is higher in protein stability index: 3.69 for the first, 3.87 for the second.

Going from DSKEEQKLIATSNKPAVKLLYNRS [S1D] to HSKEEQKLIATSNKPAVKLLYNRS [S1H], the protein stability index rises from 3.9 to 4.21.

First: CSKEEQKLIATSNKPAVKLLYNRS [S1C]
Second: VSKEEQKLIATSNKPAVKLLYNRS [S1V]
The protein stability index of the first is lower: 3.82 for the first, 3.84 for the second.

Compared with KSKEEQKLIATSNKPAVKLLYNRS [S1K], WSKEEQKLIATSNKPAVKLLYNRS [S1W] is lower in protein stability index: 4.12 for the first, 3.08 for the second.

Compared with RSKEEQKLIATSNKPAVKLLYNRS [S1R], ESKEEQKLIATSNKPAVKLLYNRS [S1E] is higher in protein stability index: 3.8 for the first, 4.49 for the second.

Going from GSKEEQKLIATSNKPAVKLLYNRS [S1G] to FSKEEQKLIATSNKPAVKLLYNRS [S1F], the protein stability index falls from 3.96 to 3.6.

Work on QSKEEQKLIATSNKPAVKLLYNRS [S1Q] yielded a protein stability index of 4.22.
